Key:
[1] = molecular target: the molecule itself; assay: SDS-resistant dimer on SDS-PAGE with immunoblot; HEK293T cells expressing WT-protrudin exposed to UV light (365 nm) as control; SDS-PAGE and immunoblot with anti-Myc antibody
[2] = molecular target: the molecule itself; assay: cross-linking; photo-crosslinking by DiZPK in living HEK293T cells, 48 h after transfection, UV 365 nm for 10 min; SDS-PAGE and immunoblot with anti-Myc antibody

B1: wild-type protrudin with a C-terminal myc tag (natural protein, human, UniProt Q5T4F4-2 1-404, looked up)
chain: MQTSEREGSGPELSPSVMPEAPLESPPFPTKSPAFDLFNLVLSYKRLEIYLEPLKDAGDGVRYLLRWQMPLCSLLTCLGLNVLFLTLNEGAWYSVGALMISVPALLGYLQEVCRARLPDSELMRRKYHSVRQEDLQRGRLSRPEAVAEVKSFLIQLEAFLSRLCCTCEAAYRVLHWENPVVSSQFYGALLGTVCMLYLLPLCWVLTLLNSTLFLGNVEFFRVVSEYRASLQQRMNPKQEEHAFESPPPPDVGGKDGLMDSTPALTPTEDLTPGSVEEAEEAEPDEEFKDAIEEDDEGAPCPAEDELALQDNGFLSKNEVLRSKVSRLTERLRKRYPTNNFGNCTGCSATFSVLKKRRSCSNCGNSFCSRCCSFKVPKSSMGATAPEAQRETVFVCASCNQTLSK
notes: protrudin (ZFYVE27), human, from cDNA; also called WT-protrudin; protrudin-myc; source: HEK293T, transfected (pcDNA3.1-protrudin-myc), in lysate; not shown: c-Myc, C-terminal, kept
stoichiometry N [1]: 2

B2: protrudin with DiZPK incorporated at site D134, C-terminal myc tag (natural protein, human, UniProt Q5T4F4-2 1-404, looked up)
chain: MQTSEREGSGPELSPSVMPEAPLESPPFPTKSPAFDLFNLVLSYKRLEIYLEPLKDAGDGVRYLLRWQMPLCSLLTCLGLNVLFLTLNEGAWYSVGALMISVPALLGYLQEVCRARLPDSELMRRKYHSVRQEKLQRGRLSRPEAVAEVKSFLIQLEAFLSRLCCTCEAAYRVLHWENPVVSSQFYGALLGTVCMLYLLPLCWVLTLLNSTLFLGNVEFFRVVSEYRASLQQRMNPKQEEHAFESPPPPDVGGKDGLMDSTPALTPTEDLTPGSVEEAEEAEPDEEFKDAIEEDDEGAPCPAEDELALQDNGFLSKNEVLRSKVSRLTERLRKRYPTNNFGNCTGCSATFSVLKKRRSCSNCGNSFCSRCCSFKVPKSSMGATAPEAQRETVFVCASCNQTLSK
modifications: DiZPK (3-(3-methyl-3H-diazirin-3-yl)-propamino-carbonyl-Nε-L-lysine) at position 134
notes: protrudin (ZFYVE27), human; codon of D134 changed to the amber codon (TAG) and read as DiZPK, a lysine derivative; The new residue is written as K because DiZPK is an Nε-modified lysine; source: HEK293T, transfected with the MbPylRS/MbtRNACUA pair, cultured with DiZPK, in lysate; not shown: c-Myc, C-terminal, kept
stoichiometry N [2]: 2
